Molecular target: T1, GDF11 (UniProt O95390 299-407)
T1 construct: also called BMP11
T1 sequence (looked up): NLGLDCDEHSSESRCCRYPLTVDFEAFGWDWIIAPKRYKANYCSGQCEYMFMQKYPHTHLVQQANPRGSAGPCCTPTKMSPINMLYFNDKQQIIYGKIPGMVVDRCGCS
Assay: Biacore; ligand coupled to chip, receptor flowed over (table reproduced from WO2006/012627)

B1: Soluble ActRIIB-Fc D80I (Fc fusion, not shown: a dimerising Fc or GST)
chain: SGRGEAETRECIYYNANWELERTNQSGLERCEGEQDKRLHCYASWANSSGTIELVKKGCWLIDFNCYDRQECVATEENPQVYFCCCEGNFCNERFTHLPEA
notes: From WO2006/012627; background 64A inferred
For B1, the “binding as fraction of WT binding” value was under 0.2 fold.

B2: Soluble ActRIIB-Fc K74F (Fc fusion, not shown: a dimerising Fc or GST)
chain: SGRGEAETRECIYYNANWELERTNQSGLERCEGEQDKRLHCYASWANSSGTIELVFKGCWLDDFNCYDRQECVATEENPQVYFCCCEGNFCNERFTHLPEA
notes: as for B1
With B2 the “binding as fraction of WT binding” value was under 0.2 fold.

B3: Soluble ActRIIB-Fc K74I (Fc fusion, not shown: a dimerising Fc or GST)
chain: SGRGEAETRECIYYNANWELERTNQSGLERCEGEQDKRLHCYASWANSSGTIELVIKGCWLDDFNCYDRQECVATEENPQVYFCCCEGNFCNERFTHLPEA
notes: as for B1
For B3, the “binding as fraction of WT binding” value was under 0.2 fold.

B4: Soluble ActRIIB-Fc K74Y (Fc fusion, not shown: a dimerising Fc or GST)
chain: SGRGEAETRECIYYNANWELERTNQSGLERCEGEQDKRLHCYASWANSSGTIELVYKGCWLDDFNCYDRQECVATEENPQVYFCCCEGNFCNERFTHLPEA
notes: as for B1
B4 was tested, and the “binding as fraction of WT binding” value was under 0.2 fold.

From patent US20250222069A1 (ACCELERON PHARMA, published 2025)
